# Measured values reported in PMC11641334, “The Effect of CBM1 and Linker on the Oxidase, Peroxidase and Monooxygenase Activities of AA9 LPMOs: Insight into Their Correlation with the Nature of Reductants and Crystallinity of Celluloses” (International Journal of Molecular Sciences, 2024).
# What was measured:
# [1] = biological target: T1, NcLPMO9C∆CBM (Neurospora crassa, UniProt Q7SHI8); test: peroxidase assay, absorbance at […] nm (coerulignone), Michaelis-Menten fit; assay type: biochemical; settings: 5 mM H2O2 co-substrate; copper-saturated enzyme 1 µM; 100 mM sodium phosphate pH 6.0; 37 °C; read-out: 2,6-DMP / Km
# T1 construct: gene gh61-3; Pichia pastoris X33, copper-saturated
# [2] = substrate: COc1cccc(OC)c1O; test: purified protein; assay type: biochemical, Aspergillus oryzae; settings: 5 mM H2O2 co-substrate, copper-saturated enzyme 1 µM, 100 mM sodium phosphate pH 6.0, 37 °C
# [3] = substrate: COc1cccc(OC)c1O; test: purified protein; assay type: biochemical, Neurospora crassa; settings: 5 mM H2O2 co-substrate, copper-saturated enzyme 1 µM, 100 mM sodium phosphate pH 6.0, 37 °C
Km [1] [µM],Molecule,Km [2] [µM],kcat [2] [s⁻¹],Km [3] [µM],kcat [3] [s⁻¹]
1280 ± 120,"COc1cccc(OC)c1O [2,6-DMP]",,,,
,"AoLPMO9B (Aspergillus oryzae RIB40) (protein, wild type, C1/C4-oxidizing, no CBM1; Pichia pastoris X33, N-glycosylated, Ni-NTA, copper-saturated) HGHVSNIVINGVYYEGFDINSFPYMGESAPTVAAWTTPNTGNGPLAPDDYSSPDIICHQNATAGKGYVEVNAGDRISLQWTPWPESHHGPVVDYLARCEPNCASVDKTSLEFFKIDGVGIVDGSSVPGVWGDDQLIQNNNTWLVEIPKSIAPGYYVLRHELIALHSAGTEGGAQNYPSCFNLKVNGEGTDKPAGVVGTELYTPTGDGIIFNIYQTVSEYPVPGPTLYSGAATGVTQAASTVTSTGTALTVGAAATTPASGSGASSSAAPSSSAAATPSSSAAPSSSAAARR",1550 ± 140,1.33 ± 0.04,,
,"NcLPMO9C (Neurospora crassa OR74A) (protein, wild type with 79-residue linker and CBM1, C4-oxidizing; Pichia pastoris X33, N-glycosylated, Ni-NTA, copper-saturated) HTIFQKVSVNGADQGQLKGIRAPANNNPVTDVMSSDIICNAVTMKDSNVLTVPAGAKVGHFWGHEIGGAAGPNDADNPIAASHKGPIMVYLAKVDNAATTGTSGLKWFKVAEAGLSNGKWAVDDLIANNGWSYFDMPTCIAPGQYLMRAELIALHNAGSQAGAQFYIGCAQINVTGGGSASPSNTVSFPGAYSASDPGILINIYGGSGKTDNGGKPYQIPGPALFTCPAGGSGGSSPAPATTASTPKPTSASAPKPVSTTASTPKPTNGSGSGTGAAHSTKCGGSKPAATTKASNPQPTNGGNSAVRAAALYGQCGGKGWTGPTSCASGTCKFSNDWYSQCLP",,,940 ± 90,0.58 ± 0.02
,"AoLPMO9A (Aspergillus oryzae RIB40) (protein, wild type, C1/C4-oxidizing, no CBM1; Pichia pastoris X33, N-glycosylated, Ni-NTA, copper-saturated) HGYVSGVVIDGQYYGGYLVDKYAYSDNAPDTIGWTTSATDLGFVDGTGYQSPDIICHKDGAPGALTAEVAAGGKIELQWTEWPESHHGPVLNYLAPCGGECSAVDKTTLEFFKIEAKGLIDGTTPPGQWATDDLISNNNSYTVTIPTSIQEGNYVLRHEIIGLHSAGQKDGAQNYPQCINIKVTGGGDATPAGTAGEALYKDTDAGILFDIYSDLSGGYPIPGPEVFSA",1760 ± 310,1.48 ± 0.09,,
